From patent publication US20170224837A1 come the findings set out here.

Read-outs that look alike come from different tables or passages of the source. Some results are limits rather than exact numbers.

Test [1] has as its target rhTrop-2/TACSTD2 (Sino Biological, Inc.), recombinant human Trop-2 immobilized on CM5 chip (human) (UniProt P09758). Put plainly: SPR (BIACORE), Trop-2 chip. A general note: In SPR one partner is held on a chip, and binding of the other changes the refractive index at the surface.
In test [2] the target is human Trop-2 (EGP-1, TACSTD2) on human tumor cells or tissues (human) (UniProt P09758). Put plainly: cell binding assay; cell line not stated.
For test [3] the target is unchanged. The experiment in a line: cell-based or functional assay.
The target of test [4] is rhTrop-2/TACSTD2 (Sino Biological, Inc.), recombinant human Trop-2 immobilized on CM5 chip (human) (UniProt P09758). Put plainly: SPR (BIACORE), low-density recombinant human Trop-2 chip, three runs.
Test [5] concerns the target recombinant human neonatal receptor (FcRn) (human) (UniProt P55899). Put plainly: SPR (BIACORE), FcRn chip.
Test [6] has the same target. The experiment in a line: SPR (BIACORE), low-density FcRn chip, three runs at 400 to 25 nM.
Test [7] concerns the target human Trop-2 (EGP-1, TACSTD2) on human tumor cells or tissues (human) (UniProt P09758). Put plainly: cell binding on NCI-N87 cells, anti-mouse-HRP, luminescence.
For test [8], the target named is Recombinant human Trop-2 with a His-tag (Sino Biological, Inc., Cat#10428-H09H) (human) (UniProt P09758). Put plainly: ELISA on Ni-NTA strips coated with His-tagged recombinant human Trop-2. On the technique in general: An ELISA detects its analyte on a solid surface through an enzyme-linked reagent.
Test [9] addresses human Trop-2 (EGP-1, TACSTD2) on human tumor cells or tissues (human) (UniProt P09758). The experiment in a line: cell-based or functional assay. This is another data set of the same source.

As usually defined, the Kd is the concentration at which binding is half-saturated.

Sequence of recombinant human neonatal receptor (FcRn) (human) (P55899 24-297 limits assumed): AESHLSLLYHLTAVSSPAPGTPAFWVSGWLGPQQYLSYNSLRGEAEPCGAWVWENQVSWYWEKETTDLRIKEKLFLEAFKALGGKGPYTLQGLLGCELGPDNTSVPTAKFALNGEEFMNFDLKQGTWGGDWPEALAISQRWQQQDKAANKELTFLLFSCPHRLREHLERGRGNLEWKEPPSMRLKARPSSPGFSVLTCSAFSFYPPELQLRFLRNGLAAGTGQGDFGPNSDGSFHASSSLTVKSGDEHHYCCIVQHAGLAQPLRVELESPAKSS
Sequence of rhTrop-2/TACSTD2 (Sino Biological, Inc.), recombinant human Trop-2 immobilized on CM5 chip (human) (P09758 27-274 limits assumed): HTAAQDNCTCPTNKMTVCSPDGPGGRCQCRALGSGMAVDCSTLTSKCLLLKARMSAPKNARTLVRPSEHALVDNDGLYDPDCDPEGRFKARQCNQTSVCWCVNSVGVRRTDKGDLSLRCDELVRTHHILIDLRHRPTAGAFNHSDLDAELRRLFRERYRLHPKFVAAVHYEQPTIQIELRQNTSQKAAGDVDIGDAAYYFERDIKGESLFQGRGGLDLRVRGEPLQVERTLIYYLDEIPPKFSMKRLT
Sequence of human Trop-2 (EGP-1, TACSTD2) on human tumor cells or tissues (human) (P09758 27-323): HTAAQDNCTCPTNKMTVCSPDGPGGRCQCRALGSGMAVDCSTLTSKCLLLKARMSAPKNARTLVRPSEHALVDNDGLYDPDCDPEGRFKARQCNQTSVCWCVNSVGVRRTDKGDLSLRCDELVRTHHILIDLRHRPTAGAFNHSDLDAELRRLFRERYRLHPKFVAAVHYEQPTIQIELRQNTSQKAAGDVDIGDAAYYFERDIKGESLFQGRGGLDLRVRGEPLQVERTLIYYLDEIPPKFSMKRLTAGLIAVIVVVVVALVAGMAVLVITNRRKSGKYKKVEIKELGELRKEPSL
Sequence of Recombinant human Trop-2 with a His-tag (Sino Biological, Inc., Cat#10428-H09H) (human) (P09758 27-274 limits assumed): as the sequence (P09758 27-274 limits assumed) above

Turning to “Sacituzumab govitecan (IMMU-132, also known as hRS7-CL2A-SN-38) (antibody)”, the fold improvement of KD against naked hRS7 in test [1] is 2 fold. This molecule also gave a Kd in test [2] of 1.2 nM. In test [3], this molecule came in with an ADCC, specific lysis of MDA-MB-468 (4-h LDH release, E:T 50:1, 33.3 nM) of 8.6%; a Median fluorescence intensity of anti-rH2AX-AF488 staining (dsDNA breaks), HCC1806 (Trop-2+) of 546 MFI; a decrease of ADCC relative to hRS7 (MDA-MB-468, NIH:OVCAR-3, BxPC-3) of more than 60%; a γH2AX induction in BxPC-3, Mean Fluorescence Intensity of 5350 MFI. The same molecule had a γH2AX induction in BxPC-3, Percent Positive in [3] of 69%. Besides, in test [4], the Kd is 0.26 nM. Also, the fold lower average binding level than hRS7 in [5] came to 2 fold. Moreover, the Kd in [6] was 192 nM.
In test [7], “162-46.2 (murine monoclonal antibody against human Trop-2, hybridoma ATCC HB-187)” had a BMax (relative luminescent units) of 8470, a dissociation constant Kd of 0.52 nM and a reduction of maximum binding (Bmax) against RS7 of 25%.
In test [7], “MAB650 (murine monoclonal antibody against human Trop-2, R&D Systems)” yielded a BMax (relative luminescent units) of 6020, a Kd of 0.49 nM and a reduction of maximum binding (Bmax) against RS7 of 50%.

B1: humanized RS7 (hRS7) anti-Trop-2 antibody, hRS7 IgG (antibody, INN chains, looked up, V domains shown, part only)
VH: QVQLQQSGSELKKPGASVKVSCKASGYTFTNYGMNWVKQAPGQGLKWMGWINTYTGEPTYTDDFKGRFAFSLDTSVSTAYLQISSLKADDTAVYFCARGGFGSSYWYFDVWGQGSLVTVSS
VL: DIQLTQSPSSLSASVGDRVSITCKASQDVSIAVAWYQQKPGKAPKLLIYSASYRYTGVPDRFSGSGSGTDFTLTISSLQPEDFAVYYCQQHYITPLTFGAGTKVEIK
Regarding B1, the Kd was 0.3 nM in test [8], 0.51 nM in [4] and 92.4 nM in [6]. In test [9], this molecule came in with an ADCC, specific lysis of BxPC-3 by PBMC (E:T 100:1, 33.3 nM) of 8.5%. In [9], this molecule had an ADCC, specific lysis of MDA-MB-468 (4-h LDH release, E:T 50:1, 33.3 nM) of 29.8%.

B2: hA20-SN-38 (anti-CD20 hA20 / veltuzumab conjugated to SN-38), non-binding control conjugate (antibody, INN chains, looked up, V domains shown, part only)
VH: QVQLQQSGAEVKKPGSSVKVSCKASGYTFTSYNMHWVKQAPGQGLEWIGAIYPGMGDTSYNQKFKGKATLTADESTNTAYMELSSLRSEDTAFYYCARSTYYGGDWYFDVWGQGTTVTVSS
VL: DIQLTQSPSSLSASVGDRVTMTCRASSSVSYIHWFQQKPGKAPKPWIYATSNLASGVPVRFSGSGSGTDYTFTISSLQPEDIATYYCQQWTSNPPTFGGGTKLEIKR
modifications: SN-38 via CL2A linker
In [9], B2 yielded a γH2AX induction in BxPC-3, Mean Fluorescence Intensity of 2250 MFI and a γH2AX induction in BxPC-3, Percent Positive of 12.7%.
